Source: patent US20160348112

Biological target: Clumping factor A (ClfA) (Staphylococcus aureus NRS384 (USA300)) (UniProt Q2G015)
Experiment: filter
Conditions: BndU at every n (W); full-length clone also has fixed flanking regions not printed [BndU at 2,4,7,8,14,20,21,27,29,32,33,34,35,36,40]; SB18T, 5 mM MgCl2; full-length aptamer

Clumping factor A (ClfA) (Staphylococcus aureus NRS384 (USA300)), sequence (Q2G015 40-893): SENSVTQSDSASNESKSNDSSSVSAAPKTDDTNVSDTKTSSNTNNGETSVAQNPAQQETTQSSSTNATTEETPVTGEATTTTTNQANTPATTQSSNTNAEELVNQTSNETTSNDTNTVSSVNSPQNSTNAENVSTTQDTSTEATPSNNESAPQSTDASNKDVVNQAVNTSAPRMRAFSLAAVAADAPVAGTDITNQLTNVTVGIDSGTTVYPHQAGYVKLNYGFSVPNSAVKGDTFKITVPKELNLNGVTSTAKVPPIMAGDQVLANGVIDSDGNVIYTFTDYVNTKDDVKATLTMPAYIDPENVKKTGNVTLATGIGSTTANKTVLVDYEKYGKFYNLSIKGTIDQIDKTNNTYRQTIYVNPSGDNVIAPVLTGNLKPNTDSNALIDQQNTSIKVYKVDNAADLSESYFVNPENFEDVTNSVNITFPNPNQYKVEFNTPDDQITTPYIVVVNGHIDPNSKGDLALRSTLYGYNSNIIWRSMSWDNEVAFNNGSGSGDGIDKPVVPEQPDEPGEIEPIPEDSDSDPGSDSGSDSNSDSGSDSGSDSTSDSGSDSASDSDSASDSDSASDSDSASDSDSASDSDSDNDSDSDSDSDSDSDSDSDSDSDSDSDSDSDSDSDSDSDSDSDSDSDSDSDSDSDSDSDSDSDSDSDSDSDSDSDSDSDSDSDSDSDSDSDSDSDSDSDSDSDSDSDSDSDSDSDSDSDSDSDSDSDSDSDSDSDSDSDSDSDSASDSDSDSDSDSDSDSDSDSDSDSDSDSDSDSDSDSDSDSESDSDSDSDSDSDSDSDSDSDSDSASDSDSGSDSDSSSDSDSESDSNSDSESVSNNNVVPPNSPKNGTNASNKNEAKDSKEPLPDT

Question: How did the Kd turn out when “ATCTGGTTCAAAGTGGCGATTGGGCATCTGGTTTTTAAGT [4503-73]” was run?
Answer: 0.79 nM
